Source: the supplement of paper PMC12764529
± gives the half width of the 95% confidence interval.

Key:
[1] = folding stability dG unfold (combined trypsin and chymotrypsin); higher = more stable
How it was run: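 Sequencing followed digestion of designed mini-proteins with trypsin and chymotrypsin, each at 11 concentrations in threefold dilutions together with a no-protease condition. The mini-proteins were under 80 residues, had no cysteine, sat in a PA-tagged cDNA display construct, and were kept only if AlphaFold2 dimer inter-PAE was above 15. From the counts, Bayesian fitting gave K50, and unfolding free energy was derived against a sequence-predicted unfolded-state K50 and a shared folded-state K50, per protease or combined.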

[2] = folding stability dG unfold from trypsin proteolysis; higher = more stable
Description: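 Folding stability of de novo designed mini-proteins (<80 aa, no Cys; designed by TrROS, TrMRF, ProteinMPNN and the joint model) was measured by cDNA display proteolysis with trypsin and chymotrypsin. Each protease was used at 11 concentrations in a threefold dilution series plus a no-protease condition. K50 was inferred by Bayesian fitting of sequencing counts, and dG unfold was derived against a sequence-predicted unfolded-state K50 (Tsuboyama et al. method). Sequences shown include variable-length N-terminal GS-type padding (SAGGSAGG...) inside a display construct carrying a PA tag. Rows were kept only if the AF2 dimer inter-PAE was >15, to exclude likely homo-oligomers.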

Sequence	folding stability dG unfold [1] [kcal/mol]	folding stability dG unfold [2] [kcal/mol]
SAGGSAGGSAGGKKVKIKIEIPGMSKEEIEKLAKELEKKGIKVEKIEVKPLPKVEVFEKKSAGGSAGGSAGG [r7_906_TrROS_Hall]	< -1	-0.602 ± 0.27
SAGGSAGGSAGGKRITIMFNTPEQIEELAENLGFDDIEVEPFPNEDGRPYVQVTIRLPPSAGGSAGGSAGGS [r10_494_TrROS]	< -1	-0.703 ± 0.15
SAGGSAGGSAGGKVRVETDPERGYYKVKIRNPNNGRKIKVPVPMDDPKKAKKQAKELAKSAGGSAGGSAGGS [r10_1117_TrROS]	< -1	-0.863 ± 0.5
SAGGSAGGSAGGLEVSIPGWTVTKTEPLPDDSVLSTATKKNGPKFLISISPDEVTISPESAGGSAGGSAGGS [r10_312_JUSTAS]	< -1	-0.394 ± 0.16
SAGGSAGGSAGGLSPESFYTVEVYNKDGTKLGPAQVVSTGTGKVVIPIEPDVEIILNPSSAGGSAGGSAGGS [r10_1257_JUSTAS]	-0.136 ± 0.21	0.346 ± 0.17
SAGGSAGGSAGGMKTYSVEELRARLEEEGKEPTLEELASLPGAKVELNKETKEATIVLKPSAGGSAGGSAGG [r7_180_TrROS_Hall]	< -1	0.044 ± 0.16
SAGGSAGGSAGGMPIRVYRDPSNPDVVYVETPESTRDVSLEEVERLPVDEIRSAAEVAAESAGGSAGGSAGG [r17_88_JUSTAS]	-0.206 ± 0.16	0.335 ± 0.021
SAGGSAGGSAGGMTKISVNIVIYDPKNNTTKIIPITMSESEIKKVKEELVPKNMSAKILSAGGSAGGSAGGS [r10_397_JUSTAS]	0.191 ± 0.24	0.847 ± 0.12
SAGGSAGGSAGGMVIEIDVPPSVPASEVKEKVKAELLKKGVPKDTEIKVIVKPKNPELLSAGGSAGGSAGGS [r10_746_JUSTAS]	< -1	-0.656 ± 0.2
SAGGSAGGSAGGMYIATFKPPDGSEITVKLNPGEKVTIKLKDGTPAGVVSKKAVSPELLSAGGSAGGSAGGS [r10_422_JUSTAS]	-0.361 ± 0.68	-0.245 ± 0.17
SAGGSAGGSAGGPKFKFEDVMVQRNPEPERAYVPITYEDPGKERPIMIPIPPNQTLDEISAGGSAGGSAGGS [r10_304_TrROS]	< -1	0.0428 ± 0.068
SAGGSAGGSAGGPVVNILVKHPNGKKETISVDVKEENIGEVATDILPKGYEVLEPSVFPGSAGGSAGGSAGG [r7_159_TrMRF]	< -1	-0.258 ± 0.1
SAGGSAGGSAGGSGGSMEVSISEAPPEYLVVTVYDPATGKTTVRKVSPSEVKSLKYEGGSAGGSAGGSAGGS [r4_494_JUSTAS]	< -1	0.274 ± 0.053
SAGGSAGGSAGGSKKIIIPVGNKPIEITLHPDEIPEIHPETNYISIYLPKTNDVLILPVGSAGGSAGGSAGG [r7_7_TrMRF]	< -1	-0.0749 ± 0.051
SAGGSAGGSAGGSMGPVPVWITIKIPDKNGKPKRKIEIPMEGPNMTPSEIRKQAKPFIKSAGGSAGGSAGGS [r4_375_TrROS]	< -1	-0.281 ± 0.49
SAGGSAGGSAGGSMKVEKFTEIITTPDGKPELIVEKEKTTTPNGGTKTTVTKIIPAKLLSAGGSAGGSAGGS [r4_117_JUSTAS]	< -1	-0.306 ± 0.38
SAGGSAGGSAGGSMRYDIVEDPETGTVTINRYVVYPPGIEKKTEGEIVPASTVPPGDLLGSAGGSAGGSAGG [r7_455_JUSTAS]	< -1	-0.0505 ± 0.29
SAGGSAGGSAGGSPPTAKELVKELREKFPPGYPITIKHPDKTIRIMMNPGPGKFQVEIYSAGGSAGGSAGGS [r4_150_TrROS]	< -1	-0.236 ± 0.37
SAGGSAGGSAGGSQELTIKIPPGEPDVRIFFPDGGEEHEIPPGDEREIELSPDKIAVQPSAGGSAGGSAGGS [r10_46_TrROS]	-0.148 ± 0.25	0.763 ± 0.059
SAGGSAGGSAGGSSRTIKLDGYKITVHPNSVHIYPPKNGKPVTVPMDNPEVQDLIKELISAGGSAGGSAGGS [r4_353_TrROS]	< -1	-1.19 ± 0.31
SAGGSAGGSAGGSSSLPLSTGTIPLEELEAQGGPIVEVTVLLFSGSSNRTIVMDLPPELVSAGGSAGGSAGG [r7_116_JUSTAS]	-0.596 ± 0.31	-0.372 ± 0.29
SAGGSAGGSAGGSSVPADTVVELEFKDEKGEPLLITVRVTTKDSGVDRTVLEVRPPELLSAGGSAGGSAGGS [r10_744_JUSTAS]	-0.424 ± 0.17	0.00915 ± 0.05
SAGGSAGGSAGGSSVSSLSIKNPPSDPKGILSSVSPEGKVVLTTVNPDGSLTTTVVDVNSAGGSAGGSAGGS [r4_177_JUSTAS]	0.414 ± 0.2	0.787 ± 0.065
